B1: cyclic III peptide 7 (KLKLK-T1-AVVSW-T1) (peptide)
peptide: KLKLKAVVSW
modifications: here or on the partner: head-to-tail cyclic; two T1 linkers (NH2CH2CH2N(SO2Me)CH2COOH) join the strands
B2: cyclic III peptide 3 (KLKLK-T1-MVVSA-T1) (peptide)
peptide: KLKLKMVVSA
modifications: here or on the partner: head-to-tail cyclic; two T1 linkers (NH2CH2CH2N(SO2Me)CH2COOH) join the strands
B3: cyclic III peptide 5 (KLKLK-T1-MVASW-T1) (peptide)
peptide: KLKLKMVASW
modifications: here or on the partner: head-to-tail cyclic; two T1 linkers (NH2CH2CH2N(SO2Me)CH2COOH) join the strands
B4: cyclic III peptide 6 (KLKLK-T1-MAVSW-T1) (peptide)
peptide: KLKLKMAVSW
modifications: here or on the partner: head-to-tail cyclic; two T1 linkers (NH2CH2CH2N(SO2Me)CH2COOH) join the strands
B5: cyclic III peptide 4 (KLKLK-T1-MVVAW-T1) (peptide)
peptide: KLKLKMVVAW
modifications: here or on the partner: head-to-tail cyclic; two T1 linkers (NH2CH2CH2N(SO2Me)CH2COOH) join the strands

In this assay the target is integrins. Briefly: cell-based or functional assay.
As for B1, the IC50 (µM), bioactivity of cyclic III peptide analogs was 31 µM. B2: the IC50 (µM), bioactivity of cyclic III peptide analogs stood at 57 µM. For B3 the value was 19 µM; for B4, 6 µM; for B5, 4 µM.

Source of the values: patent US8853149.
